T1: EsCas13d, nuclease-dead (Eubacterium siraeum, UniProt B0MS50, R295A;H300A;R849A;H854A)
T1 sequence: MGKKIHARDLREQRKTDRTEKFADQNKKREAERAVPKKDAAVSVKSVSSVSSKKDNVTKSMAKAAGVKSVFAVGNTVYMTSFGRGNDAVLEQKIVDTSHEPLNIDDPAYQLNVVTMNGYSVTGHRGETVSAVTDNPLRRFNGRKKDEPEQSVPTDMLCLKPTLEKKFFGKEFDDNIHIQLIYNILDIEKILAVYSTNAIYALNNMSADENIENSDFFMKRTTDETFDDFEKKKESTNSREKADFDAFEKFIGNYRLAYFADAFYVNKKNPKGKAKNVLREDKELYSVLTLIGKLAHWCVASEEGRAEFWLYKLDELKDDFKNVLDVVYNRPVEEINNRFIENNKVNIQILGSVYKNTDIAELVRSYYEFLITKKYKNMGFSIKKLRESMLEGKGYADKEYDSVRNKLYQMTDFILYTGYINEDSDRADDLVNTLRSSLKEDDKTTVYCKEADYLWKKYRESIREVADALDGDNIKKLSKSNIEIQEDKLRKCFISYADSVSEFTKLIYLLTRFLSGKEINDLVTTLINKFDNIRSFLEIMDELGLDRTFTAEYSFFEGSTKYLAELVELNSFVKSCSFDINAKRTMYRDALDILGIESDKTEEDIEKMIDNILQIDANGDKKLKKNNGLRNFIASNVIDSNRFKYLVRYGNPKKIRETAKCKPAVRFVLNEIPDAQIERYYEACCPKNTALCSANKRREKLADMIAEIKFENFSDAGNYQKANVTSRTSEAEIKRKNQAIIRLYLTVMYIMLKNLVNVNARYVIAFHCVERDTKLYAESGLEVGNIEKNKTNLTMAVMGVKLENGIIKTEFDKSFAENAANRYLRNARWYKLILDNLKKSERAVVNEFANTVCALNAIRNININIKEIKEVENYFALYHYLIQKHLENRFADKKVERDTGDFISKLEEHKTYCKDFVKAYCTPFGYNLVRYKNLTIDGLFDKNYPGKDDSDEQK

B1: target 1 insA 3' of 17,insG 3' of 4 (mixed)
RNA 1: CACCCGUGCAAAAAUGCAGGGGUCUAAAACUGAGCGGAUAACCUCUCUAUGG
RNA 2: GGGAAUGGAUCCACAUCUACGAAUUCGUACCAUAGAAGAGGUUAUCCGCGUCACCGAGAUCGGAAGAGCACACGU
B2: target 1 A16C,C21U (mixed)
RNA 1: CACCCGUGCAAAAAUGCAGGGGUCUAAAACUGAGCGGAUAACCUCUCUAUGG
RNA 2: GGGAAUGGAUCCACAUCUACGAAUUCGUACUAUAGCGAGGUUAUCCGCUCACCGAGAUCGGAAGAGCACACGU
B3: target 1 A1G,U3C (mixed)
RNA 1: CACCCGUGCAAAAAUGCAGGGGUCUAAAACUGAGCGGAUAACCUCUCUAUGG
RNA 2: GGGAAUGGAUCCACAUCUACGAAUUCGUACCAUAGAGAGGUUAUCCGCCCGCCGAGAUCGGAAGAGCACACGU
B4: target 3 insU 3' of 6,insC 3' of 5 (mixed)
RNA 1: CACCCGUGCAAAAUUGCAGGGGUCUAAAACGACCUGAAUAUUUCAGAUCAAA
RNA 2: GGGAAUGGAUCCACAUCUACGAAUUCGUUUUUGAUCUGAAAUAUUCUACGGUCUGCAGAUCGGAAGAGCACACGU
B5: target 3 C6G,U8G (mixed)
RNA 1: CACCCGUGCAAAAUUGCAGGGGUCUAAAACGACCUGAAUAUUUCAGAUCAAA
RNA 2: GGGAAUGGAUCCACAUCUACGAAUUCGUUUUUGAUCUGAAAUAGUGAGGUCUGCAGAUCGGAAGAGCACACGU
B6: target 3 insA 3' of 8,insC 3' of 3 (mixed)
RNA 1: CACCCGUGCAAAAUUGCAGGGGUCUAAAACGACCUGAAUAUUUCAGAUCAAA
RNA 2: GGGAAUGGAUCCACAUCUACGAAUUCGUUUUUGAUCUGAAAUAUAUCAGGCUCUGCAGAUCGGAAGAGCACACGU
B7: target 3 G19U,U21A (mixed)
RNA 1: CACCCGUGCAAAAUUGCAGGGGUCUAAAACGACCUGAAUAUUUCAGAUCAAA
RNA 2: GGGAAUGGAUCCACAUCUACGAAUUCGUUUAUUAUCUGAAAUAUUCAGGUCUGCAGAUCGGAAGAGCACACGU
B8: target 3 insC 3' of 22,insG 3' of 22 (mixed)
RNA 1: CACCCGUGCAAAAUUGCAGGGGUCUAAAACGACCUGAAUAUUUCAGAUCAAA
RNA 2: GGGAAUGGAUCCACAUCUACGAAUUCGUUUCGUUGAUCUGAAAUAUUCAGGUCUGCAGAUCGGAAGAGCACACGU
B9: target 3 insA 3' of 2,insG 3' of 2 (mixed)
RNA 1: CACCCGUGCAAAAUUGCAGGGGUCUAAAACGACCUGAAUAUUUCAGAUCAAA
RNA 2: GGGAAUGGAUCCACAUCUACGAAUUCGUUUUUGAUCUGAAAUAUUCAGGUAGCUGCAGAUCGGAAGAGCACACGU
B10: target 3 G3C,U7G (mixed)
RNA 1: CACCCGUGCAAAAUUGCAGGGGUCUAAAACGACCUGAAUAUUUCAGAUCAAA
RNA 2: GGGAAUGGAUCCACAUCUACGAAUUCGUUUUUGAUCUGAAAUAUGCAGCUCUGCAGAUCGGAAGAGCACACGU
B11: target 3 G3U,A9G (mixed)
RNA 1: CACCCGUGCAAAAUUGCAGGGGUCUAAAACGACCUGAAUAUUUCAGAUCAAA
RNA 2: GGGAAUGGAUCCACAUCUACGAAUUCGUUUUUGAUCUGAAAUGUUCAGUUCUGCAGAUCGGAAGAGCACACGU
B12: target 3 insG 3' of 18,insU 3' of 1 (mixed)
RNA 1: CACCCGUGCAAAAUUGCAGGGGUCUAAAACGACCUGAAUAUUUCAGAUCAAA
RNA 2: GGGAAUGGAUCCACAUCUACGAAUUCGUUUUUGAGUCUGAAAUAUUCAGGUCUUGCAGAUCGGAAGAGCACACGU
B13: target 3 U7G,U8C (mixed)
RNA 1: CACCCGUGCAAAAUUGCAGGGGUCUAAAACGACCUGAAUAUUUCAGAUCAAA
RNA 2: GGGAAUGGAUCCACAUCUACGAAUUCGUUUUUGAUCUGAAAUACGCAGGUCUGCAGAUCGGAAGAGCACACGU
B14: target 3 insA 3' of 10,insC 3' of 8 (mixed)
RNA 1: CACCCGUGCAAAAUUGCAGGGGUCUAAAACGACCUGAAUAUUUCAGAUCAAA
RNA 2: GGGAAUGGAUCCACAUCUACGAAUUCGUUUUUGAUCUGAAAUAAUCUCAGGUCUGCAGAUCGGAAGAGCACACGU
B15: target 3 insA 3' of 22,insG 3' of 8 (mixed)
RNA 1: CACCCGUGCAAAAUUGCAGGGGUCUAAAACGACCUGAAUAUUUCAGAUCAAA
RNA 2: GGGAAUGGAUCCACAUCUACGAAUUCGUUUAUUGAUCUGAAAUAUGUCAGGUCUGCAGAUCGGAAGAGCACACGU
B16: target 3 insC 3' of 7,insC 3' of 4 (mixed)
RNA 1: CACCCGUGCAAAAUUGCAGGGGUCUAAAACGACCUGAAUAUUUCAGAUCAAA
RNA 2: GGGAAUGGAUCCACAUCUACGAAUUCGUUUUUGAUCUGAAAUAUUCCAGCGUCUGCAGAUCGGAAGAGCACACGU
B17: target 3 insA 3' of 22,insU 3' of 6 (mixed)
RNA 1: CACCCGUGCAAAAUUGCAGGGGUCUAAAACGACCUGAAUAUUUCAGAUCAAA
RNA 2: GGGAAUGGAUCCACAUCUACGAAUUCGUUUAUUGAUCUGAAAUAUUCUAGGUCUGCAGAUCGGAAGAGCACACGU
B18: target 3 C1G,G3U (mixed)
RNA 1: CACCCGUGCAAAAUUGCAGGGGUCUAAAACGACCUGAAUAUUUCAGAUCAAA
RNA 2: GGGAAUGGAUCCACAUCUACGAAUUCGUUUUUGAUCUGAAAUAUUCAGUUGUGCAGAUCGGAAGAGCACACGU
B19: target 3 del4 (mixed)
RNA 1: CACCCGUGCAAAAUUGCAGGGGUCUAAAACGACCUGAAUAUUUCAGAUCAAA
RNA 2: GGGAAUGGAUCCACAUCUACGAAUUCGUUUUUGAUCUGAAAUAUUCAGUCUGCAGAUCGGAAGAGCACACGU
B20: target 3 insA 3' of 7,insA 3' of 7 (mixed)
RNA 1: CACCCGUGCAAAAUUGCAGGGGUCUAAAACGACCUGAAUAUUUCAGAUCAAA
RNA 2: GGGAAUGGAUCCACAUCUACGAAUUCGUUUUUGAUCUGAAAUAUUAACAGGUCUGCAGAUCGGAAGAGCACACGU
B21: target 3 G4U (mixed)
RNA 1: CACCCGUGCAAAAUUGCAGGGGUCUAAAACGACCUGAAUAUUUCAGAUCAAA
RNA 2: GGGAAUGGAUCCACAUCUACGAAUUCGUUUUUGAUCUGAAAUAUUCAUGUCUGCAGAUCGGAAGAGCACACGU
B22: target 3 C1A,G3A (mixed)
RNA 1: CACCCGUGCAAAAUUGCAGGGGUCUAAAACGACCUGAAUAUUUCAGAUCAAA
RNA 2: GGGAAUGGAUCCACAUCUACGAAUUCGUUUUUGAUCUGAAAUAUUCAGAUAUGCAGAUCGGAAGAGCACACGU
B23: target 3 insU 3' of 5,insC 3' of 5 (mixed)
RNA 1: CACCCGUGCAAAAUUGCAGGGGUCUAAAACGACCUGAAUAUUUCAGAUCAAA
RNA 2: GGGAAUGGAUCCACAUCUACGAAUUCGUUUUUGAUCUGAAAUAUUCAUCGGUCUGCAGAUCGGAAGAGCACACGU
B24: target 3 insG 3' of 2,insG 3' of 1 (mixed)
RNA 1: CACCCGUGCAAAAUUGCAGGGGUCUAAAACGACCUGAAUAUUUCAGAUCAAA
RNA 2: GGGAAUGGAUCCACAUCUACGAAUUCGUUUUUGAUCUGAAAUAUUCAGGUGCGUGCAGAUCGGAAGAGCACACGU
B25: target 3 insU 3' of 13,insC 3' of 3 (mixed)
RNA 1: CACCCGUGCAAAAUUGCAGGGGUCUAAAACGACCUGAAUAUUUCAGAUCAAA
RNA 2: GGGAAUGGAUCCACAUCUACGAAUUCGUUUUUGAUCUGAUAAUAUUCAGGCUCUGCAGAUCGGAAGAGCACACGU
B26: target 3 A5G,C6G (mixed)
RNA 1: CACCCGUGCAAAAUUGCAGGGGUCUAAAACGACCUGAAUAUUUCAGAUCAAA
RNA 2: GGGAAUGGAUCCACAUCUACGAAUUCGUUUUUGAUCUGAAAUAUUGGGGUCUGCAGAUCGGAAGAGCACACGU
B27: target 3 C1U,U21A (mixed)
RNA 1: CACCCGUGCAAAAUUGCAGGGGUCUAAAACGACCUGAAUAUUUCAGAUCAAA
RNA 2: GGGAAUGGAUCCACAUCUACGAAUUCGUUUAUGAUCUGAAAUAUUCAGGUUUGCAGAUCGGAAGAGCACACGU
B28: target 3 C6A,U22A (mixed)
RNA 1: CACCCGUGCAAAAUUGCAGGGGUCUAAAACGACCUGAAUAUUUCAGAUCAAA
RNA 2: GGGAAUGGAUCCACAUCUACGAAUUCGUUAUUGAUCUGAAAUAUUAAGGUCUGCAGAUCGGAAGAGCACACGU

These binders were tested against T1, EsCas13d, nuclease-dead (assay: crRNA (strand 1, pre-loaded); Mg2+; 40 mM Tris-HCl pH 7.5, 150 mM NaCl, 6 mM MgCl2, 1 mM DTT, 0.1% Tween-20, 0.2 mg/ml BSA; 25 C; 10 min per concentration, then washed). Conditions: tags: His6-TwinStrep-SUMO cleaved; N-terminal SNAP kept (SNAP-Surface 488); label: 3' end held by stalled T7 RNA polymerase.
With B1 the Kd was 10.2 ± 0.4 nM.
With B2 the Kd was 8.5 ± 0.6 nM.
For B3, the Kd was 35 ± 7 nM.
B4 was tested, and the Kd was 15.4 ± 1.45 nM.
Work on B5 yielded a Kd of 64 ± 8.5 nM.
With B6 the Kd was 43 ± 7 nM.
Work on B7 yielded a Kd of 99.5 ± 14.5 nM.
B8 was tested, and the Kd was 65.5 ± 21.5 nM.
Binder B9 has a Kd of 20.9 ± 2.15 nM.
B10 showed a Kd of 60 ± 7.5 nM.
B11 gave a Kd of 67.5 ± 12 nM.
Binder B12 has a Kd of 82.5 ± 17 nM.
Binder B13 has a Kd of 70 ± 11 nM.
In the case of B14, the Kd is reported as 102 ± 37 nM.
B15 showed a Kd of about 90 nM.
B16 was tested, and the Kd was 74.5 ± 15 nM.
In the case of B17, the Kd is reported as 32.5 ± 5.5 nM.
In the case of B18, the Kd is reported as 18.6 ± 3.35 nM.
In the case of B19, the Kd is reported as 23.6 ± 3 nM.
B20 showed a Kd of 38 ± 5.5 nM.
B21 showed a Kd of 4.25 ± 0.335 nM.
B22 was tested, and the Kd was 37.5 ± 13.5 nM.
With B23 the Kd was 6.59 ± 0.54 nM.
Work on B24 yielded a Kd of 25.6 ± 4.25 nM.
In the case of B25, the Kd is reported as 86.5 ± 19.5 nM.
In the case of B26, the Kd is reported as 20.4 ± 1.75 nM.
For B27, the Kd was 84 ± 26 nM.
Work on B28 yielded a Kd of 59.5 ± 6.5 nM.

Source: article PMC10786891, “Massively parallel profiling of RNA-targeting CRISPR-Cas13d”
